Results on eight proteins are retold here after paper PMC6497308.

First the molecules themselves.
B1: ATP1B2 (Na/K-ATPase β2 subunit): N96Q (protein)
parent chain: MVIQKEKKSCGQVVEEWKEFVWNPRTHQFMGRTGTSWAFILLFYLVFYGFLTAMFTLTMWVMLQTVSDHTPKYQDRLATPGLMIRPKTENLDVIVNVSDTESWDQHVQKLNKFLEPYNDSIQAQKNDVCRPGRYYEQPDNGVLNYPKRACQFNRTQLGNCSGIGDSTHYGYSTGQPCVFIKMNRVINFYAGANQSMNVTCAGKRDEDAENLGNFVMFPANGNIDLMYFPYYGKKFHVNYTQPLVAVKFLNVTPNVEVNVECRINAANIATDDERDKFAGRVAFKLRINKT
B2: ATP1B2 (Na/K-ATPase β2 subunit): N193Q (protein)
parent chain: MVIQKEKKSCGQVVEEWKEFVWNPRTHQFMGRTGTSWAFILLFYLVFYGFLTAMFTLTMWVMLQTVSDHTPKYQDRLATPGLMIRPKTENLDVIVNVSDTESWDQHVQKLNKFLEPYNDSIQAQKNDVCRPGRYYEQPDNGVLNYPKRACQFNRTQLGNCSGIGDSTHYGYSTGQPCVFIKMNRVINFYAGANQSMNVTCAGKRDEDAENLGNFVMFPANGNIDLMYFPYYGKKFHVNYTQPLVAVKFLNVTPNVEVNVECRINAANIATDDERDKFAGRVAFKLRINKT
B3: ATP1B2 (Na/K-ATPase β2 subunit): N153Q (protein)
parent chain: MVIQKEKKSCGQVVEEWKEFVWNPRTHQFMGRTGTSWAFILLFYLVFYGFLTAMFTLTMWVMLQTVSDHTPKYQDRLATPGLMIRPKTENLDVIVNVSDTESWDQHVQKLNKFLEPYNDSIQAQKNDVCRPGRYYEQPDNGVLNYPKRACQFNRTQLGNCSGIGDSTHYGYSTGQPCVFIKMNRVINFYAGANQSMNVTCAGKRDEDAENLGNFVMFPANGNIDLMYFPYYGKKFHVNYTQPLVAVKFLNVTPNVEVNVECRINAANIATDDERDKFAGRVAFKLRINKT
B4: ATP1B2 (Na/K-ATPase β2 subunit): N238Q (protein)
parent chain: MVIQKEKKSCGQVVEEWKEFVWNPRTHQFMGRTGTSWAFILLFYLVFYGFLTAMFTLTMWVMLQTVSDHTPKYQDRLATPGLMIRPKTENLDVIVNVSDTESWDQHVQKLNKFLEPYNDSIQAQKNDVCRPGRYYEQPDNGVLNYPKRACQFNRTQLGNCSGIGDSTHYGYSTGQPCVFIKMNRVINFYAGANQSMNVTCAGKRDEDAENLGNFVMFPANGNIDLMYFPYYGKKFHVNYTQPLVAVKFLNVTPNVEVNVECRINAANIATDDERDKFAGRVAFKLRINKT
B5: ATP1B2 (Na/K-ATPase β2 subunit): N159Q (protein)
parent chain: MVIQKEKKSCGQVVEEWKEFVWNPRTHQFMGRTGTSWAFILLFYLVFYGFLTAMFTLTMWVMLQTVSDHTPKYQDRLATPGLMIRPKTENLDVIVNVSDTESWDQHVQKLNKFLEPYNDSIQAQKNDVCRPGRYYEQPDNGVLNYPKRACQFNRTQLGNCSGIGDSTHYGYSTGQPCVFIKMNRVINFYAGANQSMNVTCAGKRDEDAENLGNFVMFPANGNIDLMYFPYYGKKFHVNYTQPLVAVKFLNVTPNVEVNVECRINAANIATDDERDKFAGRVAFKLRINKT
B6: ATP1B2 (Na/K-ATPase β2 subunit): N250Q (protein)
parent chain: MVIQKEKKSCGQVVEEWKEFVWNPRTHQFMGRTGTSWAFILLFYLVFYGFLTAMFTLTMWVMLQTVSDHTPKYQDRLATPGLMIRPKTENLDVIVNVSDTESWDQHVQKLNKFLEPYNDSIQAQKNDVCRPGRYYEQPDNGVLNYPKRACQFNRTQLGNCSGIGDSTHYGYSTGQPCVFIKMNRVINFYAGANQSMNVTCAGKRDEDAENLGNFVMFPANGNIDLMYFPYYGKKFHVNYTQPLVAVKFLNVTPNVEVNVECRINAANIATDDERDKFAGRVAFKLRINKT
B7: ATP1B2 (Na/K-ATPase β2 subunit): N197Q (protein)
parent chain: MVIQKEKKSCGQVVEEWKEFVWNPRTHQFMGRTGTSWAFILLFYLVFYGFLTAMFTLTMWVMLQTVSDHTPKYQDRLATPGLMIRPKTENLDVIVNVSDTESWDQHVQKLNKFLEPYNDSIQAQKNDVCRPGRYYEQPDNGVLNYPKRACQFNRTQLGNCSGIGDSTHYGYSTGQPCVFIKMNRVINFYAGANQSMNVTCAGKRDEDAENLGNFVMFPANGNIDLMYFPYYGKKFHVNYTQPLVAVKFLNVTPNVEVNVECRINAANIATDDERDKFAGRVAFKLRINKT
B8: ATP1B2 (Na/K-ATPase β2 subunit): N118Q (protein)
parent chain: MVIQKEKKSCGQVVEEWKEFVWNPRTHQFMGRTGTSWAFILLFYLVFYGFLTAMFTLTMWVMLQTVSDHTPKYQDRLATPGLMIRPKTENLDVIVNVSDTESWDQHVQKLNKFLEPYNDSIQAQKNDVCRPGRYYEQPDNGVLNYPKRACQFNRTQLGNCSGIGDSTHYGYSTGQPCVFIKMNRVINFYAGANQSMNVTCAGKRDEDAENLGNFVMFPANGNIDLMYFPYYGKKFHVNYTQPLVAVKFLNVTPNVEVNVECRINAANIATDDERDKFAGRVAFKLRINKT

A short description of this data set: Western blot densitometry of ATP1B2 in HEK293. The settings on record: glycan lost; control: normal ATP1B2. (In general: A western blot detects proteins with antibodies after separation by electrophoresis.)
In the case of B1, the expression_or_secretion entry was “no change”. As for B2, the entry is “no change”; as for B3, “no change”; as for B4, “no change”. For B5, the expression_or_secretion result is reported as “no change”. In the case of B6, the expression_or_secretion result is listed as “no change”. B7: the expression_or_secretion result is reported as “no change”.

As to B8, the expression_or_secretion result is “no change”.
